Laboratory results as given in the PETadex activity labels (doi:10.1111/febs.16924).

What was measured:
PET [1] = experiment: Proxy for plastic degradation [Released monomer concentration (HPLC/LC-MS) (TPA+MHET+BHET)] (µmol TPA-EG / mg enzyme / day); details: pH 8
PET [2] = experiment: Proxy for plastic degradation [Released monomer concentration (UHPLC) (TPA+MHET+BHET, as TPA-EG units)] (µmol TPA-EG/mg enzyme/day); details: pH 8
pNP-C12 = details: pH 8; 30 °C
[3] = substrate: Polyester-polyurethane (Impranil DLN); experiment: Proxy for plastic degradation [Proton (H+) release, phenol red pH-indicator assay]; details: 40 °C

Protein	Proxy for plastic degradation (PET [1]; part of the chain shown)	Proxy for plastic degradation (PET [2]; 30 °C, part of the chain shown)	Proxy for plastic degradation (PET [1])	Proxy for plastic degradation (PET [2]; 50 °C)	Km (pNP-C12) [µM]	kcat (pNP-C12) [s⁻¹]	kcat/Km (pNP-C12) [M⁻¹ s⁻¹]	Proxy for plastic degradation [3] [µM]	Proxy for plastic degradation (PET [2]; 40 °C)
unnamed (protein) MNFPRASRLMQAAVLGGLMAVSAAATAQTNPYARGPNPTAASLEASAGPFTVRSFTVSRPSGYGAGTVYYPTNAGGTVGAIAIVPGYTARQSSIKWWGPRLASHGFVVITIDTNSTLDQPSSRSSQQMAALRQVASLNGTSSSPIYGKVDTARMGVMGWSMGGGGSLISAANNPSLKAAAPQAPWDSSTNFSSVTVPTLIFACENDSIAPVNSSALPIYDSMSRNAKQFLEINGGSHSCANSGNSNQALIGKKGVAWMKRFMDNDTRYSTFACENPNSTRVSDFRTANCS	4.33	4.33	–	–	–	–	–	–	–
unnamed (protein) MDGVLWRVRTAALMAALLALAAWALVWASPSVEAQSNPYQRGPNPTRSALTADGPFSVATYTVSRLSVSGFGGGVIYYPTGTSLTFGGIAMSPGYTADASSLAWLGRRLASHGFVVLVINTNSRFDYPDSRASQLSAALNYLRTSSPSAVRARLDANRLAVAGHSMGGGGTLRIAEQNPSLKAAVPLTPWHTDKTFNTSVPVLIVGAEADTVAPVSQHAIPFYQNLPSTTPKVYVELDNASHFAPNSNNAAISVYTISWMKLWVDNDTRYRQFLCNVNDPALSDFRTNNRHCQ	–	–	12.8	12.8	–	–	–	–	–
unnamed (protein) MAENPYERGPAPTTSSIEASRGSFATSTVTVSRLAVSGFGGGTIYYPTSTTAGTFGAISIAPGFTALQSSIAWLGPRLASQGFVVFTIDTLTTSDQPDSRGRQLLAALDYLTQQSSVRSRIDSSRLGVVGHSMGGGGTLEAARSRPSLQAAIPLTGWNLTKTWSTVRVPTLVVGAQADTVAPVASHSIPFYNSLPSSLDKAYLELRGASHFAPNSSNTTIAKYTLSWLKRFIDNDTRYEQFLCPIPSTSLSISDYRGNCPHNG	–	–	0.17	–	730	8.26	11300	790	0.17
